Measured values published in a protein production outcome set (Wang et al. 2014).

Assay: label from the status in PepcDB records

Sequence: MQSYAADLIALGLLFLTGLAADQLGARSRLPRVTLLLICGLLAGSAGFDLIPESLAALYPIISVIALSMVAFLLGGELSLRTLSGHGRAIVVISVMVVLVTQLTVSAGLAMIGMPLAAALMVGALATATDPAATLDVIRQGRASGDFPRRLKGIVAIDDAWGVLLFGLVAVLAGAVEGNGSAHGLLGGALVEIAGSVALGLAVGLPGASLTGRLSGGEPLRIEALGLVFLTAGLSLWLDLSYLIAGMTAGAVIVNLAHHHKRAFREIEHIEWPFMIVFFILAGASLDLSALWAVGPLLMGYVALRVLGRVLGGWAGAALAATARGERPWYGPALLPQAGVAIGMALIAGDLFPQYADMITALAIGATVVFELAGPLAAAYALRRVRDSRDQSAA
- protein production: failed

Sequence: MQSYFSPLLDAMHAWLMLQLPGPVAGALLGGLHALVFIPLAALAWRVLSNESRRAQWVPLFALAGMCSAVFLSELGNTMGDTASAIPVLAALAVVLLAQFRARNGLHVVHLWAVAGALIGLAVALKLTNALYALALVPAVLCDGGRLRSRVLALSVLAGVALLVLLLVAGPWYWQVWQHLGNPLFPQFNGVFKSPLAQPVSIADVRWLPRTIGEQLIWPLLFTLKPQRIGDLGLVQAGWAVLYGVVAIAAGRALVRRPVRAAAVDRAAIVLLVFFGVAYALWQAIFSIHRYLVVLELLAPLVLWIVCRHAFAARANRKAAWLIGACALVAVVGWKDWGHESWARESFQVEQPVLGNPAASSVLLVGDEPQSWRVPLLPSQARYIGVATNISETDHYRQRVRALIAERPQLYAMLGAARDKQQVRIDRMNRLAQQFGWERQPGCSRLRWLVARGLRAELDTSQPDRCVLAIPKGKALDIAAADQAVREAAQQRLAAYGLTLDPARCRTLSSQVGQAVYPYQFCQLALPN
- protein production: failed

Sequence: MQTIYRLKEPQIDREEDVRTIIQTFLFQFSEKAYGGPSFNRPACCFAPHIYGAGKTFVGQNFSAYLNIFAERECSNAQTFQQLHSSNDNPQPSELKVPWKHFAEKTLSVCFKLEESFSDAPFPSFRKALMYNIILNS
- protein production: not failed

Sequence: MQTKEKLASLSYLAVKSLLYELNLTPKPGLVDCHNNGAHNDMDFYTFLDSILSLSPFFKKYIEVGWLYHNESPQYLFNQLRKLGIEAEAAMFSATERVNTHKGINFSFALLLGATGSYLAKHIELIQEKRRFMPQDSLTICHLAGEMSMHLIQNDLSHVETKRNLTYGEKLFLQYGLKGLRGEASQGYPSLTQKALPFFRNELLKKQDIQISQLKLLLYLMTFIEDSNIIHRGGIKSWKKVQQEAQTLLEKDLPPYQLKEQLNSYNQILTDRHLSPGGAADLLSLTLYFSFLEQLI
- protein production: failed

Sequence: MQTKKNEIWVGIFLLAALLAALFVCLKAANVTSIRTEPTYTLYATFDNIGGLKARSPVSIGGVVVGRVADITLDPKTYLPRVTLEIEQRYNHIPDTSSLSIRTSGLLGEQYLALNVGFEDPELGTAILKDGDTIQDTKSAMVLEDLIGQFLYGSKGDDNKNSGDAPAAAPGNNETTEPVGTTK
- protein production: failed

Sequence: MQTLREFTRKTKRGNILKIVREHYLRDDIGCGSELCRECFQNEVYQLTSQHANKSTLFKFPHYLVLDTNVVLDQIDVLEEDVLRNVVVLTTVLNEVKHRSSAIYKRFNEIVHDRTRNFYVFVNEHHKETYADREPDETANDRNDRAIRLATKWYDDHLQASQSSKEFERSGKAATRVVLLTDDAANRAKAEAEGILVTTAAEYVKSLEDFPLLMDKLSHKTFDSEKNGLPQYPPHLSMKELLEGLRQNKLLQGTFQASRENYLEGTVNVEKFEKGILIQGRESLNRAVDGDLVAVELLPEAEWSAPSEIVLEEKNVYADEVPSEERAKDENEMLNQVRAAALSAERTPTGRIVGIVRRKWRQYCGILQPSLIEDTNRHIFVPADRKIPRIRIETRQAAMLQNQRIIVTIDTWPRNSRYPHGHFVRSLGPLGDMATENEVILLEHDVPHCKFSDEVLSFLPKMPWTITDEDYSKRVDLRDLYICSVDPPGCTDIDDALHCKELPNGNLEVGVHIADVSHFIRPGNALDMEAAARGTTVYLVGKRIDMVPELLSSNLCSLVGGVERFAFSCVWEVDNEANVLSKRFHKSVIKSKRAMTYEEAQNIIDDATQQNEIAKSLRNLNRLAKILKKRRMDNGALVLASPEIRFQVDSETHEPLEVEVKQMRETNSMVEEFMLLANITVAEHIATEFSECAVLRRHPRPPPTNFDPLVKSARYQGFQVDINSGLELSHSLDKCVKADNPYFNTMIRILTTRCMMQAVYFISGSLQKEEFFHYGLAAPIYTHFTSPIRRYSDIMVHRLLAASIGADSTYAQLLDRKSNEELCHNLNYRHKMAQYAGRASVALNTHLFFRGKEEDEEGYVLFVRKNALQVLIPKYGLEGTLYLKSDKDGKDGVERVKSEIVFTFNEEDHTQRCGDVVFHSFDPVTVRLSLDSSNVQHEKLIFRLVKPYIKGFSVETTTEGTDSQAVSAAPPSKKTKKDKKKK
- protein production: failed

Sequence: MQTNLLSRPTSAKSTSMSDKINHPQLCQWLESVAISRDKQAFTHLFQFFAPKILRIARGKFPNEAQANEVVQDTMSNVWRKAHLYNQDKGAATTWVYTVMRNVTFDMLRKIQGNKEDNLSDDIWPIAESMSIENEIFDDHLEHANLLSVIEELPQAQQDVVKGFYFREMSQEQLAVHLHLPLGTVKSRLRLALGKLKVQLGEKHD
- protein production: failed

Sequence: MQTPPRLVAIGGLSGSGKTTIAEALAAHVGAPPGARIVESDRIRKAMHGVPAETRLPDNAYRPDVSDRVYNEMTWRAGLILSEGGSVVADAVFDRPADRERIEKAARDRGIPFFGFWLEADPLVLWQRVSERKGGPSDATVDILSRQLQRKAGLEHHHHHH
- protein production: failed

Sequence: MQTQLTEEMRQNARALEADSILRACVHCGFCTATCPTYQLLGDELDGPRGRIYLIKQVLEGNEVTLKTQEHLDRCLTCRNCETTCPSGVRYHNLLDIGRDIVEQKVKRPLPERILREGLRQVVPRPAVFRALTQVGLVLRPFLPEQVRAKLPAETVKAKPRPPLRHKRRVLMLEGCAQPTLSPNTNAATARVLDRLGISVMPANEAGCCGAVDYHLNAQEKGLARARNNIDAWWPAIEAGAEAILQTASGCGAFVKEYGQMLKNDALYADKARQVSELAVDLVELLREEPLEKLAIRGDKKLAFHCPCTLQHAQKLNGEVEKVLLRLGFTLTDVPDSHLCCGSAGTYALTHPDLARQLRDNKMNALESGKPEMIVTANIGCQTHLASAGRTSVRHWIEIVEQALEKE
- protein production: failed

Sequence: MQVEETSIEEIQTKIKRLNSKAGQMKMDLHDLAEGLPTDYTQLMDVAAATYEIYRQLDELKQELKKLENAK
- protein production: failed

Sequence: MQVHYYGGTAEAAGTSEETVETPTGLSVNQLLDHLRNLHPGLGRLLGVCTLFVDGSAVRGEQIVPARAQVEVLPPFAGG
- protein production: failed

Sequence: MQVIKQKLTATCAQLTGYLHQPDTNAHQTNLPAIIIVPGGSYTHIPVAQAESLAMAFAGHGYQAFYLEYTLLTDQQPLGLAPVLDLGRAVNLLRQHAAEWHIDPQQITPAGFSVGGHIVALYNDYWATRVATELNVTPAMLKPNNVVLGYPVISPLLGFPKDDATLATWTPTPNELAADQHVNSDNQPTFIWTTADDPIVPATNTLAYATALATAKIPYELHVFKHGPHGLALANAQTAWKPDANQPHVAHWLTLALEWLADNR
- protein production: not failed

Sequence: MQVLVVGANGQVGRLLMQQLLAAGDTPVAGLKPTEDGEEWADQGLMVCKMDLLAKPEQLASAIMGMDAVIFAAGSGGQTKADMTLLIDLDGAVKTMQAAEIAGVSRFLMISMLFAEDRNRWADPLKPLYVAKFYADNWLVRQTHLDYTIVQPGALSFHAGTGLIKSDPLAVGSVPRADLAAFLVAALHAPQTIGKTIPLLSGDQSIAQVIDQL
- protein production: failed

Sequence: MQVSQANLNLNFDANSLQRGKRYFSQGRVQNLVRETEGMSIQVLRAEVSGSQRQLYITEVRFDRYLPGKINTFCSCPVGFRCKHAAAVILQANHEAGLSAEKYESEADTRYKYPTAETWLEQAASVFSSIDNASNPECLAYLLHIEPHRSQQTLSVNKVRRRKSGEYSRGSKTTVWSRTNLEYDRPKYLRESDIAPLTWLNALPTAFRVSPVLEGTTGAYFIESALKTRRFFLESTQNPPLQLGETLESGFEWMQLPDKQHWQLVSKALPSHIRLLNTSPAYYLDEKELLIGRVENSLDARTTALLQQCPPLAESQLQQALPDLAPILEKAGAVLPESFQVPSMVQAAPQPILQLYSLQHPAPGTLPLLMARLMFSYEGHRVAFSEQEPRVLVDGNNGPLLVIRDEDAEIEWLHRDLPDFKMAGTMTDHLEADMVNALPYGSFLDFTLPTRNQWLDFIAFDLPRLDAGGWQIEMDESFDIPVIEIDQLHGSLKPDEESPGWFDVEVGIDYNGTQIDLIPLLQQALVYLDLNNDSDDALPETLWLHNGDALIRVVSDRIRPLVRTLLSLLGKERGGKLRLPKLDAAQVMGDLAADWQCSAELRNLSEKLTSFQALNHVPVPSEVRAELRHYQQDGLNWLMFLREFGLGGVLADDMGLGKTLQTLACIQAEKTAGRLTAPALVVCPTTLIANWEAEAEKFTPGLKRLVIHGQRRKPFFDMVAEADLVITSYPLLHRDLEQHQNQSYSLAFFDEAQHLKNPATVTSKAARRLPAENRIALTGTPMENHLGELWALFDLILPGYLADQKIFREHYRKPIEEQGNQSRYAELSRRVRPFMLRRTKDQVTPELPEKTEIVRHVELNRQQKDLYETIRATMDKRIRKLLAEKGAARSQIEILDALLKLRQICCHPALLNPEETAGSAKLDSLMEMLEQLLDEGRKVIIFSQFTSMLALIETTLKAAGIGYEKLTGQTRDRATPVKRFQNGESPVFLISLKAGGTGLNLTAADCVIHYDPWWNPAAEQQATDRAWRIGQDKPVFVYRLITEGTVEERIQALQARKSQLADGLYGKADTFSSAITADDISVLFEK
- protein production: failed

Sequence: MQYATLELNNAFKVLFSLRQVQAAEMVIAPGDREGGPDNRHRGADQWLFVVDGAGEAIVDGHTQALQAGSLIAIERGQAHEIRNTGDTPLKTVNFYHPPAYDAQGEPLPAGEG
- protein production: not failed

Sequence: MQYLIVKYSHQIFVTITILVFNIRFFLLWKNPEKPLAGFWKALPHLNDTMLLFTGLWLMKITHFSPFNAPWLGTKILLLLAYIALGMMMMRARPRSTKFYTVYLLAMCCVACIVYLAKTKVLPF
- protein production: failed

Sequence: MRAALTGGGLVLAYTAVISSADAITKLIAQGYAAPQLYAISGLIVAAISLAAARRNRARALKTVCPRAMALRALATVVASLCFFHTFRLLPFADVFVFIGLMPIMAALMSGLMLDEHARPAAWAALVAGFVGVLCLMPGGIGAIGAGHLWALGGVVTGTFSLILSRYIGRYESNALAQVFYPNLALGLSMAAALPFVWVPMPMLDLAWVGAYAALLFLARWLLVIALRLLAAYVVTPLLNLQFVWMVALGALAFGEWPAPMTWLGAAIVMVSGLYLIWDQMTPTTREQEELSLRTDP
- protein production: failed

Sequence: MRAFDAYKILDEQEAGSLIDLIAPCMDDYLYIIDLKNDTLRISQSAVERFMLPDKFMNDATKHLRTLVYEKDRKLLENHKRKIYDGKEKRYNVLCRLMNSKNLPVWINCRGEVINDEAGKPRYIIGCMNETGTRQRADNISGLLGEKEMASYLYSQPKEKLSGYFIQIGIDDFGIINNVQGQIYGNYILKRVAECIAECLSSGQRIYHLVTDKYMLVDMLSKSQDDVVQLFKRIGEKIDEFIVDENYKSIFSISAGVTDISTLAEDAIECRKKSDFSLKCAKKRGGGSLYFFEEEDYKVSLRKNTILSALRSATVNDFEGFEVYYQPILDSADRIIGAEALLRFFMHSDEGDEMISPVEFIPLLEKSRLIIPVGEFVLNEAAKMCREMQQYIADFRVNINVSYIQIMRGSMANKILTAIRANNLRPESICIEMTESGFMDMTPCFCSFRKKLDENNIQFIIDDFGTGYSNLRYISEMNPDYVKIDKDFTARAMSSEKDYELFRKIIEMVHSINIKICIEGIEKEEWACAMKEIHVDYMQGYLYGRPCEKGVFLNNYGI
- protein production: failed

Sequence: MRAFFNSSMREKLSQLKARQQKQEMPANLSIIHALRATQEGFEDDGVMRNYDLLESQFKENLTKEDRELLESPKPNLEKLQELKIRLLEKNGIFKPPKQKSQISLVFGMNALVPLGTIKTL
- protein production: failed

Sequence: MRAFPFFRPVLAQLMKHRVAQESTRRWLDRIIQIIKYAYCQKLRRHFCQATLWKMIQLIVNGQSQLVPSPDSGTDSGTTNDARLNIRQLLEHMGLQGKRIAVERNGEIVPRSQFDQPMLASGDKLEIVVAVGGGLEHHHHHH
- protein production: failed
